This is an account of results in publication PMC6994067.

What all share (assay): NMR
Conditions in all cases: 25 °C, not stated (10 mM citrate-phosphate buffer; no added salt mentioned), folded, free protein, 1 mM

For data set [1], the target named is Asp33 (UniProt position 54, NVPPADKYKTF).
The target in data set [2] is Glu103 (UniProt position 124, IAGTPEVHAVK).
For data set [3], the target named is Asp52 (UniProt position 73, KRNLADAVSKA).
The target in data set [4] is Glu66 (UniProt position 87, VPKLDEVYNAA).
Data set [5] has as its target Glu93 (UniProt position 114, VLHFSEALRII).
Data set [6] addresses Asp65 (UniProt position 86, LVPKLDEVYNA).
Data set [7] deals with His105 (UniProt position 126, GTPEVHAVKPG).
The target of data set [8] is Glu13 (UniProt position 34, EQKLIEDVNAS).
The target in data set [9] is Glu81 (UniProt position 102, DHAAPEDKYEA).
The target of data set [10] is Glu8 (UniProt position 29, KATTEEQKLIE).
Data set [11] deals with Asp82 (UniProt position 103, HAAPEDKYEAF).
Data set [12] deals with Glu7 (UniProt position 28, GKATTEEQKLI).
Data set [13] addresses Asp14 (UniProt position 35, QKLIEDVNASF).
Data set [14] addresses His77 (UniProt position 98, YNAADHAAPED).
Data set [15] addresses His90 (UniProt position 111, EAFVLHFSEAL).
In data set [16] the target is Glu39 (UniProt position 60, KYKTFEAAFTV).
The target in data set [17] is Asp76 (UniProt position 97, AYNAADHAAPE).
Data set [18] addresses Glu85 (UniProt position 106, PEDKYEAFVLH).

Consider “Pollen allergen Phl p 6 (Phleum pratense (timothy grass))”, for which the pKa – broadly, the pH at which an ionisable group is half protonated – is reported as 3.38 in data set [1]; 3.65 in [2]; 2.4 in [3]; 4.06 in [4]; 4.21 in data set [5]; 4.80 in data set [6]. In addition, the pKa in [7] was 6.5; in data set [8], 3.80; in data set [9], 3.52; in data set [10], 3.19; in data set [11], 3.06; in data set [12], 4.25. Besides, the pKa in data set [13] was 3.50; in data set [14], 7.4; in data set [15], 7.3; in data set [16], 4.84; in data set [17], 3.50; in data set [18], 4.59.
